According to article PMC8267817:

Molecular target: T1, phosphorylated peptide CKATQA(p)SQEY corresponding to the C-terminal end of γ-H2AX (human)
T1 sequence (peptide, phosphoserine at S139 (7th letter of the printed peptide)): CKATQASQEY
Experiment: SPR; Biacore T200, 25 °C, HBS-P (10 mM HEPES pH 7.4, 150 mM NaCl, 0.05% P20); phosphopeptide immobilised by thiol coupling of its N-terminal cysteine; VHH injected 120 s; Kd from equilibrium response fitted to a 1:1 model; fractional occupancy at saturating amounts (C6 180 nM, C6B 80 nM)

B1: C6 nanobody (purified, monovalent) (VHH)
VHH: DVQLVESGGGLVQAGDSLRLSCAASGLTFSRYAMGWFRQAPGNEREFVAVITASGRTTLYADSVKGRFTISRDNAKNTVALQMQSLKPEDTAVYYCAADYGTSRYTRRQSEYEYWGQGTQVTVSS
Q: Which Kd does the source give for B1 here?
A: 11 nM
